# Measured values as given in US20040235749A1 (HOSPITAL SAINTE JUSTINE, published 2004).
# Non-standard residues stand in square brackets, D forms with d. No end group written: not given here. dCha = N[C@H](CC1CCCCC1)C(=O)O
# B1: SEQ ID NO:79 (peptide)
# peptide: [dV][dI][dR][dA][dT][dR][dP][dA][dL]
# B2: SEQ ID NO:85 (peptide)
# peptide: [dL][dV][dP][dV][dS]G[dK][dE][dY]
# B3: PCP-13 (peptide)
# peptide: [dI][dL]G[dH][dR][dD][dY][dK]
# B4: PCP-15 (peptide)
# peptide: [dS][dN][dV][dL][dC][dS][dI][dF]
# B5: PCP-13.22 (peptide)
# peptide: [dI][dL]G[dW][dR][dD][dY][dK]
# B6: PCP-13.8 (peptide)
# peptide: [dI][dL]A[dH][dR][dD][dY][dK]
# B7: PCP-10 (peptide)
# peptide: WEDRFYLL
# B8: PCP-8 (peptide)
# peptide: ILGHRDYK
# B9: PCP-13.7 (peptide)
# peptide: [dI][dL][dA][dH][dR][dD][dY][dK]
# B10: PCP-13.24 (peptide)
# peptide: [dI][dL]G[dCha][dR][dD][dY][dK]
# B11: PCP-13.21 (peptide)
# peptide: [dI][dL]G[dH][dR][dD][dY][dK]-NH2
# modifications: N-terminus assumed
# SMILES: CC[C@@H](C)[C@@H](N)C(=O)N[C@H](CC(C)C)C(=O)NCC(=O)N[C@H](Cc1c[nH]cn1)C(=O)N[C@H](CCCNC(=N)N)C(=O)N[C@H](CC(=O)O)C(=O)N[C@H](Cc1ccc(O)cc1)C(=O)N[C@H](CCCCN)C(N)=O
# B12: PCP-13.18 (peptide)
# peptide: [dI][dL]G[dH][dQ][dD][dY][dK]
# B13: PCP-13.20 (peptide)
# peptide: [dI][dL]G[dH][dR][dD][dY]-NH2
# modifications: N-terminus assumed
# SMILES: CC[C@@H](C)[C@@H](N)C(=O)N[C@H](CC(C)C)C(=O)NCC(=O)N[C@H](Cc1c[nH]cn1)C(=O)N[C@H](CCCNC(=N)N)C(=O)N[C@H](CC(=O)O)C(=O)N[C@H](Cc1ccc(O)cc1)C(N)=O
# B14: PCP-13.11 (peptide)
# peptide: [dI][dL]G[dF][dR][dD][dY][dK]
# B15: PCP-13.13 (peptide)
# peptide: [dI][dL]G[dH][dK][dD][dY][dK]
# B16: PCP-14 (peptide)
# peptide: [dY][dQ][dD][dR][dF][dY][dL][dL]
# Target: Urotensin receptor (GPR14) in porcine tissue (retinal microvessels, aortic strips) (pig)
# Assay: cell-based or functional assay
row,Binder,"IC50, U-II (1 µM) mediated contractility of retinal microvessels"
1,B1,115 nM

# Target: PAF receptor in porcine retinal microvessels (pig, UniProt Q9XSD4 1-342)
# Assay: cell-based or functional assay
# PAF receptor in porcine retinal microvessels, sequence (Q9XSD4 whole entry): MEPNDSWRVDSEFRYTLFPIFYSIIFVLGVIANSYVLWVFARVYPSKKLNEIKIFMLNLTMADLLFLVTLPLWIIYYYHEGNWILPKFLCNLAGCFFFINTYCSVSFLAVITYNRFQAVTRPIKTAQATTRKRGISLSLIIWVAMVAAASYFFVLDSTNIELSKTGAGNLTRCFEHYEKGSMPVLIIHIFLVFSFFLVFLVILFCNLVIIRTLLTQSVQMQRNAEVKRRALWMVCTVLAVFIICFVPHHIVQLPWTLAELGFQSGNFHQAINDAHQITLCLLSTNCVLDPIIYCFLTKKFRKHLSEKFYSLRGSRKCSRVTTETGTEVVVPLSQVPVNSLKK
row,Binder,"IC50, C-PAF induced retinal vasomotor responses, porcine eyecup"
1,B2,134 nM

# Target: FP receptor in porcine tissue (retinal microvessels, uterine myometrium) (pig)
# Assay: cell-based or functional assay
Binder,"% Inhibition of Maximal Response, 100 µM peptide, 10^-7 M PGF2α, porcine eyecup","% Vasomotor Response (of maximum constriction), 100 µM peptide, 10^-7 M PGF2α, porcine eyecup"
B3,80%,20%
B4,88.1%,11.9%
B5,83.4%,16.6%
B6,53.2%,46.8%
B7,80%,20%
B8,50%,50%
B9,76.2%,23.8%
B10,93.8%,6.2%
B11,53.8%,46.2%
B12,70%,30%
B13,50.4%,49.6%
B14,87%,13%
B15,63.1%,36.9%
B16,64%,36%
